Laboratory results published in publication PMC4267192.

Target: CCA1-GST (UniProt P92973)
Assay: EMSA
Details: 25 mM HEPES-KOH pH 7.5, 50 mM KCl, 2.5 mM DTT, 1 mM PMSF, 10% glycerol, 1 ug poly-dIdC in 10 ul, 20 min on ice (final concentrations calculated from 5X …)

Chain of CCA1-GST (P92973 whole entry): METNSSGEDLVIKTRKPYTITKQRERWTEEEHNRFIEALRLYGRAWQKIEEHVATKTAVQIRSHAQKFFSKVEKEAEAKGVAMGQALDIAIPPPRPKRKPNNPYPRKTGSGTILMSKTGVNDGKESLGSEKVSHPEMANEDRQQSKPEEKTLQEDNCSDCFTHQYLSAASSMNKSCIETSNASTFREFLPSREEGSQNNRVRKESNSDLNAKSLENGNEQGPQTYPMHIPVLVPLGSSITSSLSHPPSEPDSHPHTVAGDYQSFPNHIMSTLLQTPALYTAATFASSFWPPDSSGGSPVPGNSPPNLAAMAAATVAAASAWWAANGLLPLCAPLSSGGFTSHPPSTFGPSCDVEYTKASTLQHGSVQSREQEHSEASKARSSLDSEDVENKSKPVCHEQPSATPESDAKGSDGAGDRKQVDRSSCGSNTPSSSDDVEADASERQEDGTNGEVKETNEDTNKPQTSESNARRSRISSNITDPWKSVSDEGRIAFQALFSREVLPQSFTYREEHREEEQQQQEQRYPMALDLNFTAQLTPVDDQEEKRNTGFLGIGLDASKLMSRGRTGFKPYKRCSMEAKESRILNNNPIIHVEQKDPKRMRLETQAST

Row | Sequence | binding
1 | AATCAATTCCTCTCTCTTAAAACAAAGAAGAAAAAAACAGAGAAGAAGAAGAAAAAATCTATCTCCGCCATGAACGCGAGAGCTCTTCTTTGCTCTTCAAATATTCACTCTCTCTAC (double strand) [PHT4;1 promoter probe 3] | binds
2 | GTTAGCTTACGAGCATAAATTGCGAGATCTATCTTACTTCCCCAATGAAAAAAAAATCTCAAAGATTTGGAAGTAGACCTATGAATAGAATTACAATAATACGGCAATACCAATAACAA (double strand) [PHT4;1 promoter probe 2] | binds
